± gives the uncertainty stated by the source.
Experiment: self-splicing fitness, log relative to wild type (ln ratio); higher = more splicing; Tetrahymena group I intron in knt gene, E. coli kanamycin selection, DiMSum; sequences stand for … in CUCUCU…GGAGGGAAAAGUUAUCAGGCAUGCACCUGGUAGCUAGUCUUUAAACCAAUAGAUUGCAUCGGUUUAAAAGGCAAGACCGUCAAAUUGCGGGAAAGGGGUCAACAGCCGUUCAGUACCAAGUCUCAGGGGAAACUUUGAGAUGGCCUUGCAAAGGGUAUGGUAAUAAGCUGACGGACAUGGUCCUAACCACGCAGCCAAGUCCUAAGUCAACAGAUCUUCUGUUGAUAUGGAUGCAGUUCACAGACUAAAUGUCGGUCGGGGAAGAUGUAUUCUUCUCAUAAGAUAUAGUCGGACCUCUCCUUAAUGGGAGCUAGCGGAUGAAGUGAUGCAACACUGGAGCCGCUGGGAACUAAUUUGUAUGCGAAAGUAUAUUGAUUAGUUUUGGAGUACUCGUGGUCG
Method in brief: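 The eight P1ex-region nucleotides of an intron in the knt kanamycin-resistance gene on pET-22b(+) were all randomised and the library put into E. coli BL21(DE3). Six replicate transformations were grown overnight at 37°C or 30°C on LB agar with or without 25 μg/mL kanamycin, together with 100 μg/mL carbenicillin, 50 μM IPTG and 0.2% rhamnose. Colonies were pooled and amplicon-sequenced on an Illumina HiSeq 2500. Fitness from DiMSum is the error-weighted combination of wild-type-normalised replicate fold changes, kanamycin over none.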

Sequence	self-splicing fitness (ln) (30 °C)	self-splicing fitness (ln) (37 °C)
CUUAAGCAAUAUUACGAGGU	-1.3 ± 0.14	-3.09 ± 0.26
CUUAAGCAAUAUUACGAUAC	-2.53 ± 0.36	-2.33 ± 0.5
CUUAAGCAAUAUUACGCAUA	-3.2 ± 0.32	–
CUUAAGCAAUAUUACGCCGG	-4.01 ± 0.33	-1.85 ± 0.25
CUUAAGCAAUAUUACGCGUG	-2.99 ± 0.15	-1.26 ± 0.12
CUUAAGCAAUAUUACGCUAU	-1.59 ± 0.32	-1.8 ± 0.33
CUUAAGCAAUAUUACGCUGA	-3.94 ± 0.39	-1.17 ± 0.25
CUUAAGCAAUAUUACGGAAC	–	-1.89 ± 0.3
CUUAAGCAAUAUUACGGCAA	-2.7 ± 0.42	-2.57 ± 0.38
CUUAAGCAAUAUUACGGCAG	-0.565 ± 0.099	-0.3 ± 0.12
CUUAAGCAAUAUUACGGGAG	-3.42 ± 0.27	-2.67 ± 0.27
CUUAAGCAAUAUUACGGUGA	-3.72 ± 0.24	-2.17 ± 0.19
CUUAAGCAAUAUUACGGUGC	-3.83 ± 0.17	-2.25 ± 0.2
CUUAAGCAAUAUUACGUACC	-2.7 ± 0.35	-0.17 ± 0.47
CUUAAGCAAUAUUACGUCAC	-3.97 ± 0.29	-2.91 ± 0.3
CUUCAGCAAUAUUACGACAG	-0.695 ± 0.069	-0.281 ± 0.093
CUUCAGCAAUAUUACGACAU	-3.599 ± 0.023	-2.28 ± 0.036
CUUCAGCAAUAUUACGAGAC	-4.24 ± 0.34	-3.01 ± 0.34
CUUCAGCAAUAUUACGAUAU	-3.28 ± 0.22	-1.73 ± 0.27
CUUCAGCAAUAUUACGCAAA	-2.99 ± 0.26	-2.21 ± 0.33
CUUCAGCAAUAUUACGCAGC	-2.04 ± 0.22	-1.5 ± 0.32
CUUCAGCAAUAUUACGCAUG	-1.48 ± 0.061	0.119 ± 0.068
CUUCAGCAAUAUUACGCAUU	-3.11 ± 0.19	-2.28 ± 0.2
CUUCAGCAAUAUUACGCCCC	–	-1.14 ± 0.47
CUUCAGCAAUAUUACGCUAA	-3.37 ± 0.26	-2.3 ± 0.3

Sequence	self-splicing fitness (ln) (30 °C)	self-splicing fitness (ln) (37 °C)
CUUCAGCAAUAUUACGCUAC	-2.4 ± 0.22	-2.25 ± 0.37
CUUCAGCAAUAUUACGCUCC	-2.61 ± 0.26	–
CUUCAGCAAUAUUACGCUGU	-3.69 ± 0.31	-2.47 ± 0.42
CUUCAGCAAUAUUACGGACU	-2.26 ± 0.16	-2.66 ± 0.27
CUUCAGCAAUAUUACGGAGC	-3.04 ± 0.29	-2.65 ± 0.25
CUUCAGCAAUAUUACGGAGU	-3.27 ± 0.15	-3.23 ± 0.28
CUUCAGCAAUAUUACGGAUA	-1.97 ± 0.12	-0.695 ± 0.11
CUUCAGCAAUAUUACGGCAC	-4.13 ± 0.33	-0.568 ± 0.13
CUUCAGCAAUAUUACGGGGG	-3.72 ± 0.21	-2.23 ± 0.26
CUUCAGCAAUAUUACGGGUG	-0.356 ± 0.038	0.33 ± 0.058
CUUCAGCAAUAUUACGGGUU	-4.12 ± 0.24	-2.49 ± 0.23
CUUCAGCAAUAUUACGGUUG	-1.28 ± 0.071	-0.455 ± 0.088
CUUCAGCAAUAUUACGUACA	–	-2.14 ± 0.5
CUUCAGCAAUAUUACGUGAG	-0.619 ± 0.031	-0.0413 ± 0.054
CUUCAGCAAUAUUACGUGCA	-3.53 ± 0.25	-3.83 ± 0.3
CUUCAGCAAUAUUACGUUAC	-3.35 ± 0.28	-2.27 ± 0.27
CUUGAGCAAUAUUACGAAUG	-1.23 ± 0.12	-0.596 ± 0.19
CUUGAGCAAUAUUACGAGAG	–	-1.44 ± 0.24
CUUGAGCAAUAUUACGAUAG	-2.67 ± 0.18	-0.896 ± 0.2
CUUGAGCAAUAUUACGAUCU	–	-1.04 ± 0.31
CUUGAGCAAUAUUACGCAUG	-2.7 ± 0.21	-1.3 ± 0.44
CUUGAGCAAUAUUACGCCGA	–	-2.7 ± 0.33
CUUGAGCAAUAUUACGGCUA	–	-1.11 ± 0.42
CUUGAGCAAUAUUACGUAAG	-1.68 ± 0.1	-0.582 ± 0.13
CUUGAGCAAUAUUACGUGCA	-3.2 ± 0.29	-1.94 ± 0.25

Sequence	self-splicing fitness (ln) (30 °C)	self-splicing fitness (ln) (37 °C)
CUUUAGCAAUAUUACGACCG	-0.732 ± 0.27	0.518 ± 0.26
CUUUAGCAAUAUUACGAUGU	-3.36 ± 0.28	-2.36 ± 0.24
CUUUAGCAAUAUUACGCAUC	–	-1.54 ± 0.43
CUUUAGCAAUAUUACGCAUG	-1.2 ± 0.11	-1.96 ± 0.11
CUUUAGCAAUAUUACGCCCG	-0.47 ± 0.17	0.513 ± 0.24
CUUUAGCAAUAUUACGCCGG	-1.74 ± 0.16	-1.22 ± 0.19
CUUUAGCAAUAUUACGCUCG	-1.68 ± 0.15	-0.602 ± 0.18
CUUUAGCAAUAUUACGCUGG	-3.05 ± 0.3	-1.99 ± 0.3
CUUUAGCAAUAUUACGGACC	–	-1.83 ± 0.41
CUUUAGCAAUAUUACGGCUU	-3.62 ± 0.32	–
CUUUAGCAAUAUUACGGUUG	-0.918 ± 0.083	-0.666 ± 0.099
CUUUAGCAAUAUUACGGUUU	-2.79 ± 0.21	-2.71 ± 0.24
CUUUAGCAAUAUUACGUCUA	–	-2.26 ± 0.29
CUUUAGCAAUAUUACGUCUC	-2.64 ± 0.24	-3.21 ± 0.3
CUUUAGCAAUAUUACGUGCA	-2.93 ± 0.23	-2.75 ± 0.25
CUUUAGCAAUAUUACGUGGU	-2.28 ± 0.25	-2.8 ± 0.26
GAAAAGCAAUAUUACGAAUG	-1.89 ± 0.07	-1.19 ± 0.08
GAAAAGCAAUAUUACGACCA	-0.386 ± 0.13	0.235 ± 0.19
GAAAAGCAAUAUUACGAGCA	-0.889 ± 0.063	-0.307 ± 0.076
GAAAAGCAAUAUUACGAUCG	-0.618 ± 0.06	0.218 ± 0.08
GAAAAGCAAUAUUACGAUGA	-0.7 ± 0.1	-0.295 ± 0.11
GAAAAGCAAUAUUACGAUGG	-2.73 ± 0.13	-0.913 ± 0.12
GAAAAGCAAUAUUACGCACC	-0.811 ± 0.28	-0.377 ± 0.31
GAAAAGCAAUAUUACGCAGA	-2.53 ± 0.18	-2.2 ± 0.13
GAAAAGCAAUAUUACGCAGU	-3.38 ± 0.18	-1.69 ± 0.15

Sequence	self-splicing fitness (ln) (30 °C)	self-splicing fitness (ln) (37 °C)
GAAAAGCAAUAUUACGCGGG	-3.37 ± 0.2	-2.21 ± 0.18
GAAAAGCAAUAUUACGCUGG	-2.57 ± 0.2	-1.24 ± 0.25
GAAAAGCAAUAUUACGCUGU	-2.75 ± 0.15	-0.534 ± 0.12
GAAAAGCAAUAUUACGGAGC	-2.46 ± 0.16	-0.743 ± 0.12
GAAAAGCAAUAUUACGGCGA	-0.334 ± 0.07	-0.204 ± 0.074
GAAAAGCAAUAUUACGGCGU	-0.208 ± 0.095	0.24 ± 0.11
GAAAAGCAAUAUUACGGUAA	-1.98 ± 0.12	-1.18 ± 0.12
GAAAAGCAAUAUUACGGUGG	-3.78 ± 0.2	-1.66 ± 0.15
GAAAAGCAAUAUUACGUACA	-0.498 ± 0.066	-0.0587 ± 0.082
GAAAAGCAAUAUUACGUAUA	-0.936 ± 0.098	-0.833 ± 0.12
GAAAAGCAAUAUUACGUCGG	-4.39 ± 0.32	-2.89 ± 0.24
GAAAAGCAAUAUUACGUGAA	-1.56 ± 0.065	-1.33 ± 0.085
GAAAAGCAAUAUUACGUGGC	-3.57 ± 0.2	-2.06 ± 0.16
GAAAAGCAAUAUUACGUGGU	-3.58 ± 0.17	-2.79 ± 0.2
GAAAAGCAAUAUUACGUGUU	-2.35 ± 0.083	-1.18 ± 0.088
GAAAAGCAAUAUUACGUUCA	-0.878 ± 0.086	-0.773 ± 0.082
GAAAAGCAAUAUUACGUUGC	-3.83 ± 0.15	-2.67 ± 0.14
GAACAGCAAUAUUACGAACG	-1.21 ± 0.1	-0.566 ± 0.14
GAACAGCAAUAUUACGAGCU	-1.99 ± 0.091	-1.18 ± 0.09
GAACAGCAAUAUUACGCAGA	-2.1 ± 0.14	-1.66 ± 0.12
GAACAGCAAUAUUACGCUAU	-2.43 ± 0.1	-1.21 ± 0.11
GAACAGCAAUAUUACGCUGC	–	-1.69 ± 0.26
GAACAGCAAUAUUACGGGAA	-2.38 ± 0.2	0.0433 ± 0.14
GAACAGCAAUAUUACGUAAG	-1.06 ± 0.083	-0.059 ± 0.093

From the supplement of paper PMC7877785
